Assay [1] addresses soluble recombinant human IGF1R hetero-tetramere with C-terminal 10-His tag (R&D Systems catalogue number 305-GR-50) (human) (UniProt P08069). Kind of assay: SPR Biacore X100, Ln(2)/koff. Background: SPR reads the build-up and loss of mass on a sensor chip optically.
The target is the same in assay [2]. Nature of the assay: SPR Biacore X100, His-captured h-IGF1R around 600 RU, mean of four experiments.

B1: hz208F2 VH3/VL3 (antibody, human IgG1, kappa, V domains shown)
VH: QVQLVQSGAEVKKPGASVKMSCKASGYTFTSYYIYWVKQAPGQGLEWLGWIWPGDGSTKYNEKFQGRVTLTADKSSNTAYMFLSSLRSEDTAVYFCASPMITPNYAMDYWGQGTLVTVSS
VL: DIQMTQSPSSLSASVGDRVTISCRASQDISKYLNWYQQKPGKAPKLLIYYTSRLHSGVPSRFSGRGSGTDYSLTISNLQPEDFATYFCQQGSTLPYTFGGGTKVEIKR
On to B1, for which the half-life of the complex in assay [1] fell in the range of 2 to 3 h. Besides, in assay [2], the Kd worked out at 0.06 nM.

In general, Kd refers to a measure of binding affinity in units of concentration.

For the origin of these results see US20190269788A1.
